# Experimental data: paper PMC8688422
# Tests used:
# galectin-1 = galectin-1 (UniProt P09382); experiment: SPR; BIAcore 1000, galectin-1 amine-coupled to CM5 chip, analyte injected at different concentrations, 25 °C, HBS-EP (10 mM HEPES, 150 mM NaCl, 3 mM EDTA, 0.005% P20) pH 7.4; single association, biphasic dissociation
# galectin-1 C3S = galectin-1 C3S (UniProt P09382)
substance,measurement,setting,value
platelet factor 4 (PF4/CXCL4) (ligand),K1 (kd1/ka),galectin-1,9 µM
same,K2 (kd2/ka),galectin-1,483 nM
same,kd1 (first phase of the biphasic dissociation),galectin-1,0.092 s⁻¹
same,kd2 (second phase of the biphasic dissociation),galectin-1,0.005 s⁻¹
same,kon,galectin-1,10200 M⁻¹ s⁻¹
same,stoichiometry N (CXCL4 per galectin-1),galectin-1,2
same,fluorescence anisotropy: binding affinity of galectin-1 C3S for the fluorescein-tagged tdga-probe with 8 µM CXCL4 against galectin-1 alone,galectin-1 C3S,10 fold
same,fluorescence anisotropy: inhibitory potency of asialofetuin (ASF) on the galectin-1 C3S/tdga-probe interaction with 8 µM CXCL4 against without,galectin-1 C3S,> 600 fold
